In assay [1] the target is human VLDLR LA3 fused to human IgG1 Fc (human) (UniProt P98155). Description: BLI. For orientation: BLI is a label-free optical method that tracks binding on a fibre tip over time.
For assay [2], the target named is human VLDLR LA1 fused to human IgG1 Fc (human) (UniProt P98155). Description: BLI.
The target of assay [3] is human VLDLR LA5 fused to human IgG1 Fc (human) (UniProt P98155). Description: BLI.
In assay [4] the target is human VLDLR LA2 fused to human IgG1 Fc (human) (UniProt P98155). Briefly: BLI.
Assay [5] has as its target WEEV strain California virus-like particles (Western equine encephalitis virus, strain California). Briefly: ELISA. On the technique in general: An ELISA detects its analyte on a solid surface through an enzyme-linked reagent.
The target in assay [6] is WEEV California E1 domain III fused to human IgG1 Fc (Western equine encephalitis virus, strain California). Briefly: BLI.

“WEEV strain California virus-like particles (complex)”: the equilibrium dissociation constant (Kd) is 0.00609 µM in assay [1], 0.00011 µM in assay [2], 0.00037 µM in assay [3] and 0.00159 µM in assay [4].
The substance “human VLDLR LA1-2 fused to human IgG1 Fc (from UniProt P98155-1 28-113) (Fc fusion)” gave a Kd in assay [5] of 1.63 µM.
In the case of “human VLDLR LA1-3 fused to human IgG1 Fc (from UniProt P98155-1 28-152) (Fc fusion)”, the equilibrium dissociation constant (Kd) in assay [5] worked out at 0.47 µM.
On the same count and under the same terms, then “human VLDLR LA1-5 fused to human IgG1 Fc (from UniProt P98155-1 28-236) (Fc fusion)”, with 0.41 µM; and “human VLDLR LA3 fused to human IgG1 Fc (from UniProt P98155-1 111-151) (Fc fusion)”, with 10.9 µM.
The substance “human VLDLR LA3 with 6x His tag (from UniProt P98155-1 111-151) (domain or fragment)” returned a dissociation constant (Kd) in assay [6] of 0.83 µM.
On to “human VLDLR LA5 fused to human IgG1 Fc (from UniProt P98155-1 191-236) (Fc fusion)”, for which, in assay [5], the Kd was 7.77 µM.
Regarding “human VLDLR LA5 with 6x His tag (from UniProt P98155-1 191-236) (domain or fragment)”, the Kd in assay [6] came to 0.808 µM.
On to “human VLDLR ligand-binding domain (LA1-8) fused to human IgG1 Fc (from UniProt P98155-1 28-355) (Fc fusion)”, for which, in assay [5], the Kd was found to be 1.21 µM.

One may read the Kd as the free concentration of one partner at which half of the binding sites on the other are occupied at equilibrium, for simple one-to-one binding. A low value points to higher affinity.

Source of the values: publication PMC12800238.
